From FireProtDB (doi:10.1021/bi961660c)
Values joined by “and” are separate entries in the source; they are usually repeats but may differ in a detail not shown here. Equal entries are not always repeated.

Conditions: Escherichia coli (strain K12), pH 7, 25 °C, GdnHCl, CD, Tris-HCl 20 mM, reversible: yes, whole UniProt chain shown

B1: Tryptophan synthase alpha chain wild type, P0A877 (protein)
chain: MERYESLFAQLKERKEGAFVPFVTLGDPGIEQSLKIIDTLIEAGADALELGIPFSDPLADGPTIQNATLRAFAAGVTPAQCFEMLALIRQKHPTIPIGLLMYANLVFNKGIDEFYAQCEKVGVDSVLVADVPVEESAPFRQAALRHNVAPIFICPPNADDDLLRQIASYGRGYTYLLSRAGVTGAENRAALPLNHLVAKLKEYNAAPPLQGFGISAPDQVKAAIDAGAAGAISGSAIVKIIEQHINEPEKMLAALKVFVQPMKAATRS
  unfolding free energy: 8.21 kcal/mol
transition: 3
  unfolding free energy: 4.23 kcal/mol and 4 kcal/mol
